This is an account of results in US12065471B2, “B*44 restricted peptides for use in immunotherapy against cancers and related methods” (Immatics Biotechnologies GmbH, priority 2018, dated 2024).

This assay has as its target HLA-B*44:05 (Homo sapiens, UniProt P01889, A223V/A65T/A93T/A95T/D201E/D98Y/E176V/E187L/E204Q/E69K/G107R/H137Y/K202T/L105A/L119I/N104T/N87E/Q56L/Q94N/R106L/R155S/R180D/S101N/S121R/S35A/S48T/T118I/V36M/W191S/Y91S). The experiment in a line: MHC binding assay (UV-ligand exchange, β2m ELISA, peptide exchange yield). Conditions: binding to HLA-B*44:05. The essentials: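 Binding is read as exchange yield, i.e. stabilized complex remaining after UV cleavage of a photolabile ligand in the presence of the candidate peptide. Streptavidin-captured monomers (100-fold dilution) are probed with HRP-anti-β2m, 1h at 37° C, TMB, A450. Standard curve: HLA-A*02:01/MLA-001 monomers at 15-500 ng/ml.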
(In general: ELISA stands for enzyme-linked immunosorbent assay.)

“361 (EDASLMGLY; listed as Homo sapiens) [compound 361]”: the “Peptide exchange (MHC class I binding score, peptide exchange yield)” value (“Peptide exchange” below) is “++ (>20% = ++)”. Take “157 (SQDVAGTTF; listed as Homo sapiens) [compound 157]”: the “Peptide exchange” value is recorded as “++ (>20% = ++)”. For “282 (KEFGIGDLVW; listed as Homo sapiens) [compound 282]” the value was “++++ (>75% = ++++)”. As for “341 (HELESENKKW; listed as Homo sapiens) [compound 341]”, the entry is “+++ (>50 = +++)”; as for “301 (AERIMFSDL; listed as Homo sapiens) [compound 301]”, “++++ (>75% = ++++)”. Take “264 (RELIKAIGL; listed as Homo sapiens) [compound 264]”: the “Peptide exchange” value is listed as “+++ (>50 = +++)”. For “363 (EECDKAFHF; listed as Homo sapiens) [compound 363]” the value was “+++ (>50 = +++)”; for “426 (AESLFREAL; listed as Homo sapiens) [compound 426]”, “+++ (>50 = +++)”; for “101 (SEENTGKTY; listed as Homo sapiens) [compound 101]”, “+++ (>50 = +++)”. Take “183 (KEMQVTISQQL; listed as Homo sapiens) [compound 183]”: the “Peptide exchange” value is given as “++++ (>75% = ++++)”. As for “415 (EEAGFPLAY; listed as Homo sapiens) [compound 415]”, the “Peptide exchange” value is given as “+++ (>50 = +++)”.

Take “115 (QEPFTRPVL; listed as Homo sapiens) [compound 115]”: the “Peptide exchange” value was “+++ (>50 = +++)”. For “202 (RELPLVLLA; listed as Homo sapiens) [compound 202]” the value was “++ (>20% = ++)”; for “212 (SEASVYLFRF; listed as Homo sapiens) [compound 212]”, “+++ (>50 = +++)”; for “91 (EESLLSSWDF; listed as Homo sapiens) [compound 91]”, “+++ (>50 = +++)”. For “406 (GETVVLKNM; listed as Homo sapiens) [compound 406]” the value was “+++ (>50 = +++)”; for “229 (AEDLEKKYA; listed as Homo sapiens) [compound 229]”, “++ (>20% = ++)”; for “75 (LETSCGSSTAY; listed as Homo sapiens) [compound 75]”, “+ (>10% = +)”.

Turning to “160 (AEIATTGQLY; listed as Homo sapiens) [compound 160]”, the “Peptide exchange” value is listed as “+++ (>50 = +++)”. For the substance “266 (EEEDRDGHTW; listed as Homo sapiens) [compound 266]”, the “Peptide exchange” value is reported as “+++ (>50 = +++)”. For “170 (REMFVFKDQW; listed as Homo sapiens) [compound 170]” the value was “++++ (>75% = ++++)”; for “188 (AEFVPKADLL; listed as Homo sapiens) [compound 188]”, “+++ (>50 = +++)”.

For the substance “149 (AETEPERHLG; listed as Homo sapiens) [compound 149]”, the “Peptide exchange” value is “++ (>20% = ++)”. With “386 (EESDYITHY; listed as Homo sapiens) [compound 386]”, the “Peptide exchange” value is “+++ (>50 = +++)”. For “299 (AEVQIARKL; listed as Homo sapiens) [compound 299]” the value was “+++ (>50 = +++)”; for “364 (EECDKAYSF; listed as Homo sapiens) [compound 364]”, “++ (>20% = ++)”; for “388 (VEIVTIPSL; listed as Homo sapiens) [compound 388]”, “+++ (>50 = +++)”. For “456 (SESPIRISV; listed as Homo sapiens) [compound 456]” the value was “+++ (>50 = +++)”; for “357 (AELMDKPLTF; listed as Homo sapiens) [compound 357]”, “+++ (>50 = +++)”; for “219 (WEVEVGDRTDW; listed as Homo sapiens) [compound 219]”, “+++ (>50 = +++)”.

In the case of “278 (DQVTVFLHF; listed as Homo sapiens) [compound 278]”, the “Peptide exchange” value is “+ (>10% = +)”. As for “338 (AEMKFYVVI; listed as Homo sapiens) [compound 338]”, the “Peptide exchange” value is on record as “+++ (>50 = +++)”. For “38 (DEVRFFKGNKY; listed as Homo sapiens) [compound 38]” the value was “++ (>20% = ++)”.

As for “131 (RESHLTEIRQY; listed as Homo sapiens) [compound 131]”, the “Peptide exchange” value is given as “++ (>20% = ++)”. For “163 (AEDEDGKIVGY; listed as Homo sapiens) [compound 163]” the value was “++ (>20% = ++)”. “178 (MEGAALLKIF; listed as Homo sapiens) [compound 178]”: the “Peptide exchange” value is recorded as “+++ (>50 = +++)”. As for “52 (EDNPSGHTY; listed as Homo sapiens) [compound 52]”, the entry is “++ (>20% = ++)”.

In the case of “200 (KELSVFKKF; listed as Homo sapiens) [compound 200]”, the “Peptide exchange” value is on record as “+++ (>50 = +++)”. As for “379 (AENRVGKMEA; listed as Homo sapiens) [compound 379]”, the entry is “++ (>20% = ++)”. For “306 (RRHPSFKRF; listed as Homo sapiens) [compound 306]”, the “Peptide exchange” value is recorded as “+ (>10% = +)”. Consider “254 (QEVAGYVLI; listed as Homo sapiens) [compound 254]”, for which the “Peptide exchange” value is “+++ (>50 = +++)”. As for “227 (ALTEDSIDDTF; listed as Homo sapiens) [compound 227]”, the entry is “+ (>10% = +)”. As for “171 (WEVVHTVF; listed as Homo sapiens) [compound 171]”, the entry is “++ (>20% = ++)”; as for “204 (YERPTLVEL; listed as Homo sapiens) [compound 204]”, “+++ (>50 = +++)”; as for “98 (SEESAGPLL; listed as Homo sapiens) [compound 98]”, “+++ (>50 = +++)”.

As to “223 (SEVEGLAFV; listed as Homo sapiens) [compound 223]”, the “Peptide exchange” value is reported as “+++ (>50 = +++)”. As for “111 (QEIDQKRLEF; listed as Homo sapiens) [compound 111]”, the entry is “++ (>20% = ++)”; as for “225 (VEAATVSKW; listed as Homo sapiens) [compound 225]”, “+++ (>50 = +++)”; as for “390 (GEYNKHAQLW; listed as Homo sapiens) [compound 390]”, “++++ (>75% = ++++)”. Consider “454 (SESSSAFQF; listed as Homo sapiens) [compound 454]”, for which the “Peptide exchange” value is on record as “+++ (>50 = +++)”.

As to “319 (YEWEPFAEV; listed as Homo sapiens) [compound 319]”, the “Peptide exchange” value is “+ (>10% = +)”. Regarding “378 (QELFLQEVRM; listed as Homo sapiens) [compound 378]”, the “Peptide exchange” value is listed as “+++ (>50 = +++)”.

For the substance “400 (TELGLFGVW; listed as Homo sapiens) [compound 400]”, the “Peptide exchange” value is “++++ (>75% = ++++)”. As for “407 (MEFQNTQSY; listed as Homo sapiens) [compound 407]”, the entry is “+++ (>50 = +++)”; as for “416 (DELMRKESQW; listed as Homo sapiens) [compound 416]”, “+++ (>50 = +++)”. As for “67 (TEGAVEVKY; listed as Homo sapiens) [compound 67]”, the entry is “++ (>20% = ++)”. As for “165 (EEIEAHIAL; listed as Homo sapiens) [compound 165]”, the entry is “+++ (>50 = +++)”. “332 (SEADWLRFW; listed as Homo sapiens) [compound 332]”: the “Peptide exchange” value was “++++ (>75% = ++++)”.

Take “252 (EEFIGKIGI; listed as Homo sapiens) [compound 252]”: the “Peptide exchange” value is reported as “++ (>20% = ++)”. As for “419 (SELSLLSLY; listed as Homo sapiens) [compound 419]”, the entry is “+++ (>50 = +++)”; as for “50 (SEYVHSSFSGF; listed as Homo sapiens) [compound 50]”, “+++ (>50 = +++)”.
